# Measured values published in patent US20080182978A1, “ANTI-NGF ANTIBODIES AND METHODS USING SAME” (RINAT NEUROSCIENCE CORP, priority 2002, published 2008).
# Entries after “also recorded” stand apart in the source; their conditions may differ.
# T1: NT4/5 (Homo sapiens, UniProt P34130)
# T1 sequence (P34130 81-210): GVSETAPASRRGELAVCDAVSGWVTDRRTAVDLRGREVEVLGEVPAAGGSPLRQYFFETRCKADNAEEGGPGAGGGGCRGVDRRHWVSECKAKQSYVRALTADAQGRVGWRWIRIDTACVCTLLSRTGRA
# B1: E3: humanized, affinity matured anti-NGF antagonist antibody; variable regions SEQ ID NO:1 and 2; human IgG2a (A330P331 to S330S331), kappa (antibody, V domains shown)
# VH: QVQLQESGPGLVKPSETLSLTCTVSGFSLIGYDLNWIRQPPGKGLEWIGIIWGDGTTDYNSAVKSRVTISKDTSKNQFSLKLSSVTAADTAVYYCARGGYWYATSYYFDYWGQGTLVTVS
# VL: DIQMTQSPSSLSASVGDRVTITCRASQSISNNLNWYQQKPGKAPKLLIYYTSRFHSGVPSRFSGSGSGTDFTFTISSLQPEDIATYYCQQEHTLPYTFGQGTKLEIKRT
# modifications: human IgG2a constant (A330S/P331S) and kappa constant missing
# Experiments:
# [1] = molecular target: T1, NT4/5; test: Mouse E17 nodose neuron survival assay, NT4/5; assay type: cell-based; conditions: NT4/5 400 pM; antibody up to 200 nM; 48 hours
# Description: The ability of antibody E3 to specifically block NGF activity was also evaluated by measurement of the capacity of the antibody to inhibit survival of mouse nodose E17 neurons in the presence of saturating concentrations of BDNF or NT4/5. Survival of nodose neurons is supported by BDNF or NT4/5; therefore, survival of these neurons is a sensitive assay to evaluate the BDNF or NT4/5-blocking ability of the anti-NGF antagonist antibody.
# The survival assay was conducted as follows: time mated pregnant Swiss Webster female mice were euthanised by CO2 inhalation. The uterine horns were removed and the embryos (at embryonic day 17 or 18) were extracted and decapitated. The trigeminal and nodose ganglia were dissected and cleaned. The ganglia were then trypsinised, mechanically dissociated and plated at a density of 100-300 cells per well in defined, serum-free medium in 4-well plates (Greiner) coated with poly-L-ornithine and laminin.
# E17 nodose neurons were grown either in the absence of added neurotrophic factors (negative control), or with saturating concentrations of BDNF (400 pM) (positive control) or NT4/5 (400 pM) or NGF unrelated growth factor […]. High concentrations of neurotrophins were used, as the goal of this experiment was to test specificity of the antibodies. […]
# [2] = tested on: moderate to severe pain from osteoarthritis of the knee; test: Clinical study, osteoarthritis of the knee: index knee pain VAS, PID/SPID; assay type: in vivo, human
# Excerpt: Adult males and females (ages between 35 to 65) who were experiencing moderate-to-severe pain from osteoarthritis of the knee, but were in otherwise overall good health were enrolled in the study. During the screening period, patients were required to discontinue arthritis medications such as NSAIDs, cyclooxygenase type-2 (COX-2) inhibitors, and opiates at least 14 days prior to administration of anti-NGF antibody E3. Patients were allowed to use rescue medications of acetaminophen or ibuprofen with some restrictions based on laboratory findings or past medical history. Some patients took rescue medications during the study, but rescue medications were not consumed for 2 days before and after administration of anti-NGF antibody E3. Thirty-four patients were admitted to the study and assessed as inpatients for on Study Days -1, 1 and 2. Anti-NGF antibody E3 administration occurred on the morning of Day 1. Electronic diaries were used to record index knee pain and rescue medication usage in clinic and at home. Ten patients were treated with placebo. Twenty-four patients were treated with anti-NGF antibody E3: four patients per dose level for 3 μg/kg (cohort 1), 10 μg/kg (cohort 2), and 30 μg/kg (cohort 3); and six patients per dose level for 100 μg/kg (cohort 4) and 300 μg/kg (cohort 5). The placebo used was sterile 0.9% Sodium Chloride Injection, USP (normal saline). Anti-NGF antibody E3 was a frozen liquid formulation consisting of 10 mg/ml antibody in an aqueous solution of 10 mM histidine, 275 mM sucrose, 0.01% polysorbate 20, pH 6.0. One hour prior to IV administration, frozen antibody was thawed and diluted into Sodium Chloride Injection, USP. The volume for each patient was calculated based on the subject's Day -1 weight and assigned dose level, ranging from 3-6 cc for cohort 1, 10-20 cc for cohort 2, 30-60 cc for cohort 3, and 100 cc for cohort 4 and cohort 5. For cohorts 1 and 2, antibody E3 was administered by a slow IV bolus over 3 to 5 minutes, followed with an IV flush of 5 cc Sodium Chloride Injection, USP. For cohorts 3-5, antibody E3 was administered at 100 cc/hour via infusion pump, followed with an IV flush of 5 cc Sodium Chloride Injection, USP and discontinuation of the IV. Within each cohort, the placebo (Sodium Chloride Injection, USP) was administered by slow bolus or continuous infusion in the same fashion as the antibody E3. After two in-patient days, patients were discharged home. […] Periodic safety assessments was performed for 181 days in all patients. Analgesic effects were assessed before dosing and at multiple times after administration of antibody E3. […] Patients were cued 4 times daily and instructed to indicate the level of arthritis pain in the index knee at that moment. […] VAS for index knee pain during walking was completed daily, concurrent with the fourth current index knee pain VAS. Electronic diary for data collection was issued on day -8 and a 7-day screening assessment of electronic diary compliance was performed from day -8 to day -2 to determine success in using the electronic diaries for a given subject. Subjects were instructed to complete 4 diaries per day. The mean VAS recorded during the screening period is used as baseline for assessment of efficacy. Outcome was assessed as change from baseline (pain level during screening period), expressed as pain intensity difference (PID) or summed pain intensity difference (SPID) for different dose levels. Changes from baseline in the activity measurements were analyzed using an analysis of covariance (ANCOVA) model with treatment as the main factor and baseline pain as a covariate. For means and mean changes, comparisons of antibody E3 with placebo was made using Dunnett'[…] was used to assess the dose-response relationship.
molecule,measurement,setting,value
B1,survival of E17 nodose neurons promoted by NT4/5,[1],had no effect; also recorded: did not inhibit
same,Summed pain intensity differences (SPID) as compared to baseline,"[2]; All E3 doses, Days 2-8",−713
same,Summed pain intensity differences (SPID) as compared to baseline,"[2]; All E3 doses, Days 2-14",−1269
same,Summed pain intensity differences (SPID) as compared to baseline,"[2]; All E3 doses, Days 2-21",−1752
same,Summed pain intensity differences (SPID) as compared to baseline,"[2]; All E3 doses, Days 2-28",−2254
same,Summed pain intensity differences (SPID) as compared to baseline,"[2]; E3 3 μg/kg single administration, Days 2-8",−572
same,Summed pain intensity differences (SPID) as compared to baseline,"[2]; E3 3 μg/kg single administration, Days 2-14",−956
same,Summed pain intensity differences (SPID) as compared to baseline,"[2]; E3 3 μg/kg single administration, Days 2-21",−1048
same,Summed pain intensity differences (SPID) as compared to baseline,"[2]; E3 3 μg/kg single administration, Days 2-28",−1067
same,Summed pain intensity differences (SPID) as compared to baseline,"[2]; E3 10 μg/kg single administration, Days 2-8",−671
same,Summed pain intensity differences (SPID) as compared to baseline,"[2]; E3 10 μg/kg single administration, Days 2-14",−1174
same,Summed pain intensity differences (SPID) as compared to baseline,"[2]; E3 10 μg/kg single administration, Days 2-21",−1623
same,Summed pain intensity differences (SPID) as compared to baseline,"[2]; E3 10 μg/kg single administration, Days 2-28",−2020
same,Summed pain intensity differences (SPID) as compared to baseline,"[2]; E3 30 μg/kg single administration, Days 2-8",−733
same,Summed pain intensity differences (SPID) as compared to baseline,"[2]; E3 30 μg/kg single administration, Days 2-14",−1371
same,Summed pain intensity differences (SPID) as compared to baseline,"[2]; E3 30 μg/kg single administration, Days 2-21",−2042
same,Summed pain intensity differences (SPID) as compared to baseline,"[2]; E3 30 μg/kg single administration, Days 2-28",−2566
same,Summed pain intensity differences (SPID) as compared to baseline,"[2]; E3 100 μg/kg single administration, Days 2-8",−766
same,Summed pain intensity differences (SPID) as compared to baseline,"[2]; E3 100 μg/kg single administration, Days 2-14",−1403
same,Summed pain intensity differences (SPID) as compared to baseline,"[2]; E3 100 μg/kg single administration, Days 2-21",−1996
same,Summed pain intensity differences (SPID) as compared to baseline,"[2]; E3 100 μg/kg single administration, Days 2-28",−2726
same,Summed pain intensity differences (SPID) as compared to baseline,"[2]; E3 300 μg/kg single administration, Days 2-8",−769
same,Summed pain intensity differences (SPID) as compared to baseline,"[2]; E3 300 μg/kg single administration, Days 2-14",−1340
same,Summed pain intensity differences (SPID) as compared to baseline,"[2]; E3 300 μg/kg single administration, Days 2-21",−1869
same,Summed pain intensity differences (SPID) as compared to baseline,"[2]; E3 300 μg/kg single administration, Days 2-28",−2521
same,"summed pain intensity differences (SPID) vs baseline, ANCOVA","[2]; single administration, p<0.05",pain reduction was statistically significant
same,mean daily pain intensity (VAS) vs baseline,"[2]; single i.v. dose 3, 10, 30, 100 or 300 μg/kg, every dose tested",decrease of mean daily pain intensity
same,duration of pain intensity reduction / pain relief,[2]; single i.v. dose of 100 μg/kg,at least 80 days
